In publication PMC5203670, “Biosynthesis of selenate reductase in Salmonella enterica: critical roles for the signal peptide and DmsD” (Microbiology, 2016):
Read-outs that look alike come from different tables or passages of the source.

Key:
[1] = target: T25-DmsD fusion protein (S. enterica DmsD attached to the C-terminus of T25) (Salmonella enterica serovar Typhimurium) (UniProt Q8ZPK0); assay: two-hybrid; bacterial adenylate cyclase two-hybrid (spYnfE-T18 and T25-DmsD) in E. coli MAE01 (ΔcyaA); cultures at 30 °C, β-galactosidase activity in Miller units, shown relative to the native pair
[2] = target: T25-DmsD fusion protein (S. enterica DmsD attached to the C-terminus of T25) (Salmonella enterica serovar Typhimurium) (UniProt Q8ZPK0); assay: as above; remark: listed apart in the source
[3] = target: YnfE signal peptide (Salmonella enterica); settings: cited from earlier work
Chain of YnfE signal peptide (Salmonella enterica) (P77374 1-43): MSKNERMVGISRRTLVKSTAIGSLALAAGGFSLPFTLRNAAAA

[4] = target: the molecule itself; assay: cross-linking; 1 % (v/v) formaldehyde, purified DmsD (2 µM) with or without synthetic peptide 2 (100 µM), 30 min, 50 mM HEPES pH 7.6, 150 mM KCl; SDS-PAGE and anti-DmsD immunoblot

**Q.** With “spYnfE-T18 fusion (42-residue YnfE Tat signal peptide at the N-terminus of T18) (domain or fragment)” as the molecule, how does the β-galactosidase activity (positive control, 100 %) [1] read?
**A.** The β-galactosidase activity (positive control, 100 %) was 1650 Miller units.

**Q.** What about the β-galactosidase activity (positive control, 100 %) [2] of the same molecule?
**A.** Its β-galactosidase activity (positive control, 100 %) is 1720 Miller units.

**Q.** Which Kd [3] does the source give for DmsD (from UniProt Q8ZPK0) here?
**A.** The Kd was 45 nM.

B1: Recombinant S. enterica DmsD, purified, hexa-histidine tag removed (natural protein, Salmonella enterica serovar Typhimurium, UniProt Q8ZPK0 1-204, looked up)
chain: MTTFLQRDDFAVTARVLGALFYYSPESHETAPLVQALLNDDWQAQWPLDAEALAPVAAMFKTHSEESLPQAWQRLFIGPYALPSPPWGSVWLDRESVLFGDSTLALRQWMRENGIQFEMQQNEPEDHFGSLLLLAAWLAENDRHHECEQLLAWHLFPWSSRFLDVFIDHAGHPFYQALGQLARLTLAQWQAQLIIPVAVKPLFR
notes: DmsD of S. enterica serovar Typhimurium, 204 residues; The forward primer encodes ENLYFQG before the first methionine; also called purified DmsD; pQE-His-TEV-DmsDst; not shown: His6, N-terminal, cleaved
**Q.** Which “stoichiometry N” value [4] does the source give for B1 here?
**A.** The value was 2.
